Laboratory results from patent publication US5998172.

Experiments:
[1] = target: activated leucocyte-cell adhesion molecule (ALCAM), CD6 ligand (human); test: indirect immunofluorescence and flow cytometry, cultured TE cells; control
[2] = target: activated leucocyte-cell adhesion molecule (ALCAM), CD6 ligand (human); test: flow cytometry, HBL-100 cells, 10 to 200 µg/ml
[3] = target: activated leucocyte-cell adhesion molecule (ALCAM), CD6 ligand (human); test: flow cytometry, TE cells after CD58 mAb
[4] = target: activated leucocyte-cell adhesion molecule (ALCAM), CD6 ligand (human); test: flow cytometry, TE cells after CD54 mAb; CD5-Rg subtracted
[5] = target: activated leucocyte-cell adhesion molecule (ALCAM), CD6 ligand (human); test: flow cytometry, HBL-100 cells after control mAb P3
[6] = target: activated leucocyte-cell adhesion molecule (ALCAM), CD6 ligand (human); test: flow cytometry, HBL-100 cells after mAb J4-81
[7] = target: activated leucocyte-cell adhesion molecule (ALCAM), CD6 ligand (human); test: flow cytometry, TE cells after CD63 mAb
[8] = target: activated leucocyte-cell adhesion molecule (ALCAM), CD6 ligand (human); test: flow cytometry, TE cells after CD66 mAb
[9] = target: activated leucocyte-cell adhesion molecule (ALCAM), CD6 ligand (human)
[10] = target: activated leucocyte-cell adhesion molecule (ALCAM), CD6 ligand (human); test: flow cytometry, TE cells after CD58 mAb; CD5-Rg subtracted
[11] = target: activated leucocyte-cell adhesion molecule (ALCAM), CD6 ligand (human); test: flow cytometry, TE cells after mAb J4-81; CD5-Rg subtracted
[12] = target: activated leucocyte-cell adhesion molecule (ALCAM), CD6 ligand (human); test: flow cytometry, TE cells, buffer with 5 mM CaCl2
[13] = target: activated leucocyte-cell adhesion molecule (ALCAM), CD6 ligand (human); test: flow cytometry, HBL-100 cells after control mAb P3; CD5-Rg subtracted
[14] = target: activated leucocyte-cell adhesion molecule (ALCAM), CD6 ligand (human); test: flow cytometry, TE cells, buffer with 5 mM MgCl2
[15] = target: activated leucocyte-cell adhesion molecule (ALCAM), CD6 ligand (human); test: flow cytometry, TE cells, 10 mM EDTA against DME with 5% FBS
[16] = target: activated leucocyte-cell adhesion molecule (ALCAM), CD6 ligand (human); test: flow cytometry, TE cells after CD24 mAb
[17] = target: activated leucocyte-cell adhesion molecule (ALCAM), CD6 ligand (human); test: flow cytometry, TE cells after control mAb P3; CD5-Rg subtracted
[18] = target: activated leucocyte-cell adhesion molecule (ALCAM), CD6 ligand (human); test: flow cytometry, TE cells after control mAb P3
[19] = target: activated leucocyte-cell adhesion molecule (ALCAM), CD6 ligand (human); test: flow cytometry, TE cells after CD46 mAb; CD5-Rg subtracted
[20] = target: activated leucocyte-cell adhesion molecule (ALCAM), CD6 ligand (human); test: flow cytometry, TE cells after CD24 mAb; CD5-Rg subtracted
[21] = target: activated leucocyte-cell adhesion molecule (ALCAM), CD6 ligand (human); test: flow cytometry, HBL-100 cells after mAb J4-81; CD5-Rg subtracted
[22] = target: activated leucocyte-cell adhesion molecule (ALCAM), CD6 ligand (human); test: flow cytometry, TE cells after CD9 mAb
[23] = target: activated leucocyte-cell adhesion molecule (ALCAM), CD6 ligand (human); test: flow cytometry, TE cells after CD59 mAb; CD5-Rg subtracted
[24] = target: activated leucocyte-cell adhesion molecule (ALCAM), CD6 ligand (human); test: flow cytometry, TE cells after CD9 mAb; CD5-Rg subtracted
[25] = target: activated leucocyte-cell adhesion molecule (ALCAM), CD6 ligand (human); test: flow cytometry, TE cells after CD54 mAb
[26] = target: activated leucocyte-cell adhesion molecule (ALCAM), CD6 ligand (human); test: indirect immunofluorescence and flow cytometry, cultured TE cells
[27] = target: activated leucocyte-cell adhesion molecule (ALCAM), CD6 ligand (human); test: flow cytometry, TE cells after CD40 mAb
[28] = target: activated leucocyte-cell adhesion molecule (ALCAM), CD6 ligand (human); test: flow cytometry, TE cells after CD59 mAb
[29] = target: activated leucocyte-cell adhesion molecule (ALCAM), CD6 ligand (human); test: flow cytometry, TE cells after CD46 mAb
[30] = target: activated leucocyte-cell adhesion molecule (ALCAM), CD6 ligand (human); test: flow cytometry, TE cells after CD66 mAb; CD5-Rg subtracted
[31] = target: activated leucocyte-cell adhesion molecule (ALCAM), CD6 ligand (human); test: flow cytometry, TE cells after mAb J4-81
[32] = target: activated leucocyte-cell adhesion molecule (ALCAM), CD6 ligand (human); test: flow cytometry, TE cells after CD51 mAb; CD5-Rg subtracted
[33] = target: activated leucocyte-cell adhesion molecule (ALCAM), CD6 ligand (human); test: flow cytometry, TE cells after CD63 mAb; CD5-Rg subtracted
[34] = target: activated leucocyte-cell adhesion molecule (ALCAM), CD6 ligand (human); test: flow cytometry, TE cells after CD51 mAb
[35] = target: activated leucocyte-cell adhesion molecule (ALCAM), CD6 ligand (human); test: flow cytometry, TE cells after CD40 mAb; CD5-Rg subtracted
[36] = target: activated leucocyte-cell adhesion molecule (ALCAM), CD6 ligand (human); test: flow cytometry, TE cells, buffer with 5 mM MnCl2
[37] = target: activated leucocyte-cell adhesion molecule (ALCAM), CD6 ligand (human); remark: listed apart in the source

With human IgG1 (control) the MFC (linear mean fluorescence channel) [1] was 72.9.

Molecule “ELAM1-Rg fusion protein (from UniProt P16581) (Fc fusion)” has an MFC (linear mean fluorescence channel) [1] of 70.5.

“CD5-Rg fusion protein (from UniProt P06127) (Fc fusion)” gave an MFC (linear mean fluorescence channel) [1] of 72.1.

Work on “CD6-Rg fusion protein (CD6 receptor globulin) (from UniProt P30203) (Fc fusion)” yielded a saturating concentration [2] of 100 µg/mL, a % Binding [3] of 87% and a % inhibition [3] of 13%. For the same molecule, the Δ Fluorescence [4] was 44, the % Binding [5] was 100% and the % inhibition [5] was 0%. The % Binding [6] was 59%, the % Binding [7] was 102% and the % inhibition [7] was -2%. The % Binding [8] was 108%, the % inhibition [8] was -8% and the % Inhibition of thymocyte-thymic epithelial cell binding (rosettes) [9] was 34.5%. For the same molecule, the Δ Fluorescence [10] was 45, the Δ Fluorescence [11] was 21 and the relative binding with 5 mM CaCl2 [12] was 144%. For the same molecule, the Δ Fluorescence [13] was 58, the relative binding with 5 mM MgCl2 [14] was 94% and the % inhibition of binding by 10 mM EDTA [15] was 54%. It also gave a % Binding [16] of 92%, a % inhibition [16] of 8% and a Δ Fluorescence [17] of 52. It also gave a % Binding [18] of 100%, a % inhibition [18] of 0% and a Δ Fluorescence [19] of 57. It also gave a Δ Fluorescence [20] of 48, a Δ Fluorescence [21] of 34 and a % Binding [22] of 115%. The % inhibition [22] was -15%, the Δ Fluorescence [23] was 52 and the Δ Fluorescence [24] was 60. The % Binding [25] was 85%, the % inhibition [25] was 15% and the MFC (linear mean fluorescence channel) [26] was 165. The % Binding [27] was 92%, the % inhibition [27] was 8% and the % Binding [28] was 100%. It also gave a % inhibition [28] of 0%, a % Binding [29] of 110% and a % inhibition [29] of -10%. The Δ Fluorescence [30] was 56, the % Binding [31] was 40% and the Δ Fluorescence [32] was 46. The Δ Fluorescence [33] was 53, the % Binding [34] was 88% and the % inhibition [34] was 12%. It also gave a Δ Fluorescence [35] of 48 and a relative binding with 5 mM MnCl2 [36] of 318%.

B1: CD6, P30203 (protein)
chain: HPSPAPPDQLNTSSAESELWEPGERLPVRLTNGSSSCSGTVEVRLEASWEPACGALWDSRAAEAVCRALGCGGAEAASQLAPPTPELPPPPAAGNTSVAANATLAGAPALLCSGAEWRLCEVVEHACRSDGRRARVTCAENRALRLVDGGGACAGRVEMLEHGEWGSVCDDTWDLEDAHVVCRQLGCGWAVQALPGLHFTPGRGPIHRDQVNCSGAEAYLWDCPGLPGQHYCGHKEDAGAVCSEHQSWRLTGGADRCEGQVEVHFRGVWNTVCDSEWYPSEAKVLCQSLGCGTAVERPKGLPHSLSGRMYYSCNGEELTLSNCSWRFNNSNLCSQSLAARVLCSASRSLHNLSTPEVPASVQTVTIESSVTVKIENKESRELMLLIPSIVLGILLLGSLIFIAFILLRIKGKYALPVMVNHQHLPTTIPAGSNSYQPVPITIPKEVFMLPIQVQAPPPEDSDSGSDSDYEHYDFSAQPPVALTTFYNSQRHRVTDEEVQQSRFQMPPLEEGLEELHASHIPTANPGHCITDPPSLGPQYHPRSNSESSTSSGEDYCNSPKSKLPPWNPQVFSSERSSFLEQPPNLELAGTQPAFSAGPPADDSSSTSSGEWYQNFQPPPQPPSEEQFGCPGSPSPQPDSTDNDDYDDISAA
B1 gave a % COS cells binding TE cells [37] of 25%.
